Data reported in PMC7367873, “Dissecting the sequence determinants for dephosphorylation by the catalytic subunits of phosphatases PP1 and PP2A” (Nature Communications, 2020).

Legend:
[1] = tested on: GFP-14-3-3β; test: GFP-14-3-3β co-IP with LC-MS/MS, untreated GFP-14-3-3β versus GFP control (14-3-3 interactome); type: binding, human; conditions: log2 difference; pairwise comparison untreated vs GFP, label-free quantification, 3 replicates each
[2] = tested on: GFP-14-3-3β and its binding proteins; test: GFP-14-3-3β co-IP with LC-MS/MS label-free quantification, untreated versus PP1c-treated; parameters: species or system human; conditions: log2 difference; pairwise comparison PP1 vs untreated, label-free quantification, 3 replicates each

Molecule	Difference (log2), untreated vs GFP [1]	Difference (log2), PP1 vs untreated [2]
CKAP4 (protein, UniProt Q07065 1-602, looked up) Cytoskeleton-associated …: MPSAKQRGSKGGHGAASPSEKGAHPSGGADDVAKKPPPAPQQPPPPPAPHPQQHPQQHPQNQAHGKGGHRGGGGGGGKSSSSSSASAAAAAAAASSSASCSRRLGRALNFLFYLALVAAAAFSGWCVHHVLEEVQQVRRSHQDFSRQREELGQGLQGVEQKVQSLQATFGTFESILRSSQHKQDLTEKAVKQGESEVSRISEVLQKLQNEILKDLSDGIHVVKDARERDFTSLENTVEERLTELTKSINDNIAIFTEVQKRSQKEINDMKAKVASLEESEGNKQDLKALKEAVKEIQTSAKSREWDMEALRSTLQTMESDIYTEVRELVSLKQEQQAFKEAADTERLALQALTEKLLRSEESVSRLPEEIRRLEEELRQLKSDSHGPKEDGGFRHSEAFEALQQKSQGLDSRLQHVEDGVLSMQVASARQTESLESLLSKSQEHEQRLAALQGRLEGLGSSEADQDGLASTVRSLGETQLVLYGDVEELKRSVGELPSTVESLQKVQEQVHTLLSQDQAQAARLPPQDFLDRLSSLDNLKASVSQVEADLKMLRTAVDSLVAYSVKIETNENNLESAKGLLDDLRNDLDRLFVKVEKIHEKV	-0.6332	1.432
EIF5B (protein, UniProt O60841 1-1220, looked up) Eukaryotic translation …: MGKKQKNKSEDSTKDDIDLDALAAEIEGAGAAKEQEPQKSKGKKKKEKKKQDFDEDDILKELEELSLEAQGIKADRETVAVKPTENNEEEFTSKDKKKKGQKGKKQSFDDNDSEELEDKDSKSKKTAKPKVEMYSGSDDDDDFNKLPKKAKGKAQKSNKKWDGSEEDEDNSKKIKERSRINSSGESGDESDEFLQSRKGQKKNQKNKPGPNIESGNEDDDASFKIKTVAQKKAEKKERERKKRDEEKAKLRKLKEKEELETGKKDQSKQKESQRKFEEETVKSKVTVDTGVIPASEEKAETPTAAEDDNEGDKKKKDKKKKKGEKEEKEKEKKKGPSKATVKAMQEALAKLKEEEERQKREEEERIKRLEELEAKRKEEERLEQEKRERKKQKEKERKERLKKEGKLLTKSQREARARAEATLKLLQAQGVEVPSKDSLPKKRPIYEDKKRKKIPQQLESKEVSESMELCAAVEVMEQGVPEKEETPPPVEPEEEEDTEDAGLDDWEAMASDEETEKVEGNKVHIEVKENPEEEEEEEEEEEEDEESEEEEEEEGESEGSEGDEEDEKVSDEKDSGKTLDKKPSKEMSSDSEYDSDDDRTKEERAYDKAKRRIEKRRLEHSKNVNTEKLRAPIICVLGHVDTGKTKILDKLRHTHVQDGEAGGITQQIGATNVPLEAINEQTKMIKNFDRENVRIPGMLIIDTPGHESFSNLRNRGSSLCDIAILVVDIMHGLEPQTIESINLLKSKKCPFIVALNKIDRLYDWKKSPDSDVAATLKKQKKNTKDEFEERAKAIIVEFAQQGLNAALFYENKDPRTFVSLVPTSAHTGDGMGSLIYLLVELTQTMLSKRLAHCEELRAQVMEVKALPGMGTTIDVILINGRLKEGDTIIVPGVEGPIVTQIRGLLLPPPMKELRVKNQYEKHKEVEAAQGVKILGKDLEKTLAGLPLLVAYKEDEIPVLKDELIHELKQTLNAIKLEEKGVYVQASTLGSLEALLEFLKTSEVPYAGINIGPVHKKDVMKASVMLEHDPQYAVILAFDVRIERDAQEMADSLGVRIFSAEIIYHLFDAFTKYRQDYKKQKQEEFKHIAVFPCKIKILPQYIFNSRDPIVMGVTVEAGQVKQGTPMCVPSKNFVDIGIVTSIEINHKQVDVAKKGQEVCVKIEPIPGESPKMFGRHFEATDILVSKISRQSIDALKDWFRDEMQKSDWQLIVELKKVFEII	0.212	1.436
CCDC124 (protein, UniProt Q96CT7 1-223, looked up) Coiled-coil domain-containing …: MPKKFQGENTKSAAARARRAEAKAAADAKKQKELEDAYWKDDDKHVMRKEQRKEEKEKRRLDQLERKKETQRLLEEEDSKLKGGKAPRVATSSKVTRAQIEDTLRRDHQLREAPDTAEKAKSHLEVPLEENVNRRVLEEGSVEARTIEDAIAVLSVAEEAADRHPERRMRAAFTAFEEAQLPRLKQENPNMRLSQLKQLLKKEWLRSPDNPMNQRAVPFNAPK	0.7429	1.402
DDOST (protein, UniProt P39656 43-456, looked up) Dolichyl-diphosphooligosacchar …: SGPRTLVLLDNLNVRETHSLFFRSLKDRGFELTFKTADDPSLSLIKYGEFLYDNLIIFSPSVEDFGGNINVETISAFIDGGGSVLVAASSDIGDPLRELGSECGIEFDEEKTAVIDHHNYDISDLGQHTLIVADTENLLKAPTIVGKSSLNPILFRGVGMVADPDNPLVLDILTGSSTSYSFFPDKPITQYPHAVGKNTLLIAGLQARNNARVIFSGSLDFFSDSFFNSAVQKAAPGSQRYSQTGNYELAVALSRWVFKEEGVLRVGPVSHHRVGETAPPNAYTVTDLVEYSIVIQQLSNGKWVPFDGDDIQLEFVRIDPFVRTFLKKKGGKYSVQFKLPDVYGVFQFKVDYNRLGYTHLYSSTQVSVRPLQHTQYERFIPSAYPYYASAFSMMLGLFIFSIVFLHMKEKEKSD	-0.4067	1.381
SLC25A13 (protein, UniProt Q9UJS0 2-675, looked up) Electrogenic …: AAAKVALTKRADPAELRTIFLKYASIEKNGEFFMSPNDFVTRYLNIFGESQPNPKTVELLSGVVDQTKDGLISFQEFVAFESVLCAPDALFMVAFQLFDKAGKGEVTFEDVKQVFGQTTIHQHIPFNWDSEFVQLHFGKERKRHLTYAEFTQFLLEIQLEHAKQAFVQRDNARTGRVTAIDFRDIMVTIRPHVLTPFVEECLVAAAGGTTSHQVSFSYFNGFNSLLNNMELIRKIYSTLAGTRKDVEVTKEEFVLAAQKFGQVTPMEVDILFQLADLYEPRGRMTLADIERIAPLEEGTLPFNLAEAQRQKASGDSARPVLLQVAESAYRFGLGSVAGAVGATAVYPIDLVKTRMQNQRSTGSFVGELMYKNSFDCFKKVLRYEGFFGLYRGLLPQLLGVAPEKAIKLTVNDFVRDKFMHKDGSVPLAAEILAGGCAGGSQVIFTNPLEIVKIRLQVAGEITTGPRVSALSVVRDLGFFGIYKGAKACFLRDIPFSAIYFPCYAHVKASFANEDGQVSPGSLLLAGAIAGMPAASLVTPADVIKTRLQVAARAGQTTYSGVIDCFRKILREEGPKALWKGAGARVFRSSPQFGVTLLTYELLQRWFYIDFGGVKPMGSEPVPKSRINLPAPNPDHVGGYKLAVATFAGIENKFGLYLPLFKPSVSTSKAIGGGP	0.4406	1.412
ABCF2 (protein, UniProt Q9UG63 1-623, looked up) ATP-binding cassette …: MPSDLAKKKAAKKKEAAKARQRPRKGHEENGDVVTEPQVAEKNEANGRETTEVDLLTKELEDFEMKKAAARAVTGVLASHPNSTDVHIINLSLTFHGQELLSDTKLELNSGRRYGLIGLNGIGKSMLLSAIGKREVPIPEHIDIYHLTREMPPSDKTPLHCVMEVDTERAMLEKEAERLAHEDAECEKLMELYERLEELDADKAEMRASRILHGLGFTPAMQRKKLKDFSGGWRMRVALARALFIRPFMLLLDEPTNHLDLDACVWLEEELKTFKRILVLVSHSQDFLNGVCTNIIHMHNKKLKYYTGNYDQYVKTRLELEENQMKRFHWEQDQIAHMKNYIARFGHGSAKLARQAQSKEKTLQKMMASGLTERVVSDKTLSFYFPPCGKIPPPVIMVQNVSFKYTKDGPCIYNNLEFGIDLDTRVALVGPNGAGKSTLLKLLTGELLPTDGMIRKHSHVKIGRYHQHLQEQLDLDLSPLEYMMKCYPEIKEKEEMRKIIGRYGLTGKQQVSPIRNLSDGQKCRVCLAWLAWQNPHMLFLDEPTNHLDIETIDALADAINEFEGGMMLVSHDFRLIQQVAQEIWVCEKQTITKWPGDILAYKEHLKSKLVDEEPQLTKRTHNV	-0.5576	1.378
ATAD3A (protein, UniProt Q9NVI7 2-586, looked up) ATPase family AAA …: SWLFGINKGPKGEGAGPPPPLPPAQPGAEGGGDRGLGDRPAPKDKWSNFDPTGLERAAKAARELEHSRYAKDALNLAQMQEQTLQLEQQSKLKEYEAAVEQLKSEQIRAQAEERRKTLSEETRQHQARAQYQDKLARQRYEDQLKQQQLLNEENLRKQEESVQKQEAMRRATVEREMELRHKNEMLRVEAEARARAKAERENADIIREQIRLKAAEHRQTVLESIRTAGTLFGEGFRAFVTDWDKVTATVAGLTLLAVGVYSAKNATLVAGRFIEARLGKPSLVRETSRITVLEALRHPIQVSRRLLSRPQDALEGVVLSPSLEARVRDIAIATRNTKKNRSLYRNILMYGPPGTGKTLFAKKLALHSGMDYAIMTGGDVAPMGREGVTAMHKLFDWANTSRRGLLLFVDEADAFLRKRATEKISEDLRATLNAFLYRTGQHSNKFMLVLASNQPEQFDWAINDRINEMVHFDLPGQEERERLVRMYFDKYVLKPATEGKQRLKLAQFDYGRKCSEVARLTEGMSGREIAQLAVSWQATAYASEDGVLTEAMMDTRVQDAVQQHQQKMCWLKAEGPGRGDEPSPS	-0.296	1.381
DHX36 (protein, UniProt Q9H2U1 1-1008, looked up) ATP-dependent DNA/RNA …: MSYDYHQNWGRDGGPRSSGGGYGGGPAGGHGGNRGSGGGGGGGGGGRGGRGRHPGHLKGREIGMWYAKKQGQKNKEAERQERAVVHMDERREEQIVQLLNSVQAKNDKESEAQISWFAPEDHGYGTEVSTKNTPCSENKLDIQEKKLINQEKKMFRIRNRSYIDRDSEYLLQENEPDGTLDQKLLEDLQKKKNDLRYIEMQHFREKLPSYGMQKELVNLIDNHQVTVISGETGCGKTTQVTQFILDNYIERGKGSACRIVCTQPRRISAISVAERVAAERAESCGSGNSTGYQIRLQSRLPRKQGSILYCTTGIILQWLQSDPYLSSVSHIVLDEIHERNLQSDVLMTVVKDLLNFRSDLKVILMSATLNAEKFSEYFGNCPMIHIPGFTFPVVEYLLEDVIEKIRYVPEQKEHRSQFKRGFMQGHVNRQEKEEKEAIYKERWPDYVRELRRRYSASTVDVIEMMEDDKVDLNLIVALIRYIVLEEEDGAILVFLPGWDNISTLHDLLMSQVMFKSDKFLIIPLHSLMPTVNQTQVFKRTPPGVRKIVIATNIAETSITIDDVVYVIDGGKIKETHFDTQNNISTMSAEWVSKANAKQRKGRAGRVQPGHCYHLYNGLRASLLDDYQLPEILRTPLEELCLQIKILRLGGIAYFLSRLMDPPSNEAVLLSIRHLMELNALDKQEELTPLGVHLARLPVEPHIGKMILFGALFCCLDPVLTIAASLSFKDPFVIPLGKEKIADARRKELAKDTRSDHLTVVNAFEGWEEARRRGFRYEKDYCWEYFLSSNTLQMLHNMKGQFAEHLLGAGFVSSRNPKDPESNINSDNEKIIKAVICAGLYPKVAKIRLNLGKKRKMVKVYTKTDGLVAVHPKSVNVEQTDFHYNWLIYHLKMRTSSIYLYDCTEVSPYCLLFFGGDISIQKDNDQETIAVDEWIVFQSPARIAHLVKELRKELDILLQEKIESPHPVDWNDTKSRDCAVLSAIIDLIKTQEKATPRNFPPRFQDGYYS	0.06686	1.434
